Source: US20090175789A1

Target: human LDL (Low Density Lipoprotein) receptor (human) (UniProt P01130)
Assay: competition by flow cytometry on A549 cells: unlabelled LDLs (varied, 16-fold excess) reduce the binding of 12G4 (30 µg/mL) to LDL-R

human LDL (Low Density Lipoprotein) receptor (human), sequence (P01130 22-860): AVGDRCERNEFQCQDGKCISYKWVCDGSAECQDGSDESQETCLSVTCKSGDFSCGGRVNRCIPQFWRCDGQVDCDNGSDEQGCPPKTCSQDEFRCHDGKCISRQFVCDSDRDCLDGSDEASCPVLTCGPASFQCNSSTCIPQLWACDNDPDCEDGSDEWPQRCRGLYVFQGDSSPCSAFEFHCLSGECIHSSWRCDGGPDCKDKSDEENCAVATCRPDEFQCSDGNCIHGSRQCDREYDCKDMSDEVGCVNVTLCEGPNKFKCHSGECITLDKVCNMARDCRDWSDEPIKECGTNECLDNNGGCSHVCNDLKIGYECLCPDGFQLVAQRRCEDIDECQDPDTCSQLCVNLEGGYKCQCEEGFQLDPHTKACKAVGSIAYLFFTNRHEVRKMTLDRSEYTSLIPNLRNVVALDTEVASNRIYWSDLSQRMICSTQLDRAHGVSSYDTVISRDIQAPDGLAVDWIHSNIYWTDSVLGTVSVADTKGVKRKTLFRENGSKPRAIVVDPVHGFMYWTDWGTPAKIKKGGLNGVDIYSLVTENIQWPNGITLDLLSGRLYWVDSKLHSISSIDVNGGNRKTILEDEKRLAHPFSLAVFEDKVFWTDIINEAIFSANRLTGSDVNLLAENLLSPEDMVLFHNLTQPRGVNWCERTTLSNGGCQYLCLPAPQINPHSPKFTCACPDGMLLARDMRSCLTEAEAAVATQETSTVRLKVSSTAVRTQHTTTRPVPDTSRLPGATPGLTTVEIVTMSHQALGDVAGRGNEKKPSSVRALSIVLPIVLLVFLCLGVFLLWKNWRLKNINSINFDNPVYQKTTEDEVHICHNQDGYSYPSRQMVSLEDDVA

reduction in the bond: 60%
Substance: LDLs (Low Density Lipoproteins) (from UniProt P04114 28-4563) (ligand)
